Experimental data reported in paper PMC10903983 (2024).

Target: KPNA2 (Homo sapiens, UniProt P52292)
Test: MST

Row | Binder | Kd [µM]
1 | KLVFFVKRKKKP [NLS-FF-T nucleopeptide] | ~1.16
2 | KLVFF [FF-T nucleopeptide] | ~31.1
